From patent US20200317768A1 (published 2020)

T1: cynomolgus monkey FcγRIIa1 extracellular domain, His-tagged (cynomolgus monkey)
T1 construct: also called cyno FcγRIIa1; cynoFcgRIIa1; not shown: C-terminal His-tag
T1 chain: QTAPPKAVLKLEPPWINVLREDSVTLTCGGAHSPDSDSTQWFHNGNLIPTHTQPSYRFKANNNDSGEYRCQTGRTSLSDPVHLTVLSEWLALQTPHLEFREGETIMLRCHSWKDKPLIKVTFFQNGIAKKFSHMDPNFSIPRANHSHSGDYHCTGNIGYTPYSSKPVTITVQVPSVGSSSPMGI

T2: cynomolgus monkey FcγRIIa2 extracellular domain, His-tagged (cynomolgus monkey)
T2 construct: also called cyno FcγRIIa2; cynoFcgRIIa2; not shown: C-terminal His-tag
T2 chain: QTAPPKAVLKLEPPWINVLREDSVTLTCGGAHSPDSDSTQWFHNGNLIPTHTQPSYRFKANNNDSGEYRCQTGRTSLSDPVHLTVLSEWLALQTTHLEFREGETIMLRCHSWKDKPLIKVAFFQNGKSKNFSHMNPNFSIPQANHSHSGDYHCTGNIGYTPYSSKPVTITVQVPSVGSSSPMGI

T3: cynomolgus monkey FcγRIIa3 extracellular domain, His-tagged (cynomolgus monkey)
T3 construct: also called cyno FcγRIIa3; cynoFcgRIIa3; not shown: C-terminal His-tag
T3 chain: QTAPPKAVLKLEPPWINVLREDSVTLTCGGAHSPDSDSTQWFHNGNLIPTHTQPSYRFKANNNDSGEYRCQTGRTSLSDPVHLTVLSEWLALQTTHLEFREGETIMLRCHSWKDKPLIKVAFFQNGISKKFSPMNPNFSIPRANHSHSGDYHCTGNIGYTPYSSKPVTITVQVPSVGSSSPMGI

T4: cynomolgus monkey FcγRIIb extracellular domain, His-tagged (cynomolgus monkey)
T4 construct: also called cyno FcγRIIb; cynoFcγRIIb; not shown: C-terminal His-tag
T4 chain: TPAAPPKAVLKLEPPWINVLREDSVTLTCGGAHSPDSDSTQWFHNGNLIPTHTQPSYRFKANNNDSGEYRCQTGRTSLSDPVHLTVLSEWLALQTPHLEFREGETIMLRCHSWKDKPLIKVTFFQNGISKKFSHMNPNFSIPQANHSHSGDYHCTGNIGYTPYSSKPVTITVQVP

T5: cynomolgus monkey FcγRIIIaS extracellular domain, His-tagged (cynomolgus monkey, UniProt Q8SPW2 21-206 at identity 1.00))
T5 construct: also called cyno FcγRIIIaS; cynoFcγRIIIaS; not shown: C-terminal His-tag
T5 chain: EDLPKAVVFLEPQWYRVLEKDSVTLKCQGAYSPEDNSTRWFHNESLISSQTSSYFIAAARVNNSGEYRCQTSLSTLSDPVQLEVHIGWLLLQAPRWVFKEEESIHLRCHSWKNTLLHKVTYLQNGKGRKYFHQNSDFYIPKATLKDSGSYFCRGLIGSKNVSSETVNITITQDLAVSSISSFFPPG

T6: human FcγRIIaH extracellular domain, His-tagged (human, UniProt P12318 34-217)
T6 construct: also called human FcγRIIa (type H); FcgRIIaH; not shown: C-terminal His-tag
T6 sequence: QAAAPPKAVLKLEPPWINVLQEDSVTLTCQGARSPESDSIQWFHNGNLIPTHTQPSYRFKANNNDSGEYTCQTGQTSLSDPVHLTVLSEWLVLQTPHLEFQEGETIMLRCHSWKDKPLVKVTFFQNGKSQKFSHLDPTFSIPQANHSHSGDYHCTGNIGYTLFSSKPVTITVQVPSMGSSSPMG

T7: human FcγRIIaR extracellular domain, His-tagged (human, UniProt P12318 34-217)
T7 construct: also called human FcγRIIa (type R); FcgRIIaR; not shown: C-terminal His-tag
T7 chain: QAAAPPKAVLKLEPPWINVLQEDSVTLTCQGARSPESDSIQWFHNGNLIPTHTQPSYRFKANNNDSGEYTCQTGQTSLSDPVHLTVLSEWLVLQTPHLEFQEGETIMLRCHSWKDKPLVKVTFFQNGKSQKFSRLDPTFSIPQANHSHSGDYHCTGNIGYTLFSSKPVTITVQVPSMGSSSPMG


Experiments:
[1] = target: T1, cynomolgus monkey FcγRIIa1 …; assay: SPR (BIACORE), captured antibody, FcgR as analyte
[2] = target: T2, cynomolgus monkey FcγRIIa2 …; assay: SPR (BIACORE), captured antibody, FcgR as analyte
[3] = target: T3, cynomolgus monkey FcγRIIa3 …; assay: SPR (BIACORE), captured antibody, FcgR as analyte
[4] = target: T4, cynomolgus monkey FcγRIIb extracellular …; assay: SPR (BIACORE), captured antibody, FcgR as analyte
[5] = target: T5, cynomolgus monkey FcγRIIIaS …; assay: SPR (BIACORE), captured antibody, FcgR as analyte
[6] = target: T6, human FcγRIIaH extracellular domain, …; assay: SPR (BIACORE), captured antibody, FcgR as analyte
[7] = target: T7, human FcγRIIaR extracellular domain, …; assay: SPR (BIACORE), captured antibody, FcgR as analyte
[8] = target: T8, human FcγRIIIaV extracellular domain, His-tagged (human, UniProt P08637 17-208); assay: SPR (BIACORE), captured antibody, FcgR as analyte
T8 construct: also called FcgRIIIaV; not shown: C-terminal His-tag

[9] = target: T5, cynomolgus monkey FcγRIIIaS …; assay: SPR (BIACORE); KD of SG1 divided by KD of variant;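 further: relative to parent M103205H795-SG1 carrying the SG1 human heavy chain constant region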

T8 sequence (P08637 17-208 F176V): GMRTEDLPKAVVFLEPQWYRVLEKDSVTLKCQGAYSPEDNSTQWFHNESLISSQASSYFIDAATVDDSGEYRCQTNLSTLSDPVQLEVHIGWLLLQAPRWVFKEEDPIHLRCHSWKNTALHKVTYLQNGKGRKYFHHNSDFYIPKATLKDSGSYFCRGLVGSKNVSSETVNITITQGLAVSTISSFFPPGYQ

Binder	Kd [1]	Kd [2]	Kd [3]	Kd [4]	Kd [5]	Kd [6]	Kd [7]	Kd [8]	KD fold (SG1 = 1) [9]
M103205H795-MY459/M103202L889-SK1 (antibody, human IgG1, kappa, copies: 2 + 2) heavy: QVTLKESGPVLVKPTETLTLTCTVSGIDLSHDDISWVRQAPGKGLEWVGIISYAGSTYYASWAKGRLTISKDTSKNQVVLTMTNMDPVDTATYYCARGVPAYSHGGDLWGQGTLVTVSSASTKGPSVFPLAPSSKSTSGGTAALGCLVKDYFPEPVTVSWNSGALTSGVHTFPAVLQSSGLYSLSSVVTVPSSSLGTQTYICNVNHKPSNTKVDKKVEPKSCDKTHTCPPCPDPELLTGPSVFLFPPKPKDTLMISRTPEVTCVVVDVSDEDPEVKFNWYVDGVEVHNAKTKPREEQYNSTYRVVSVLTVLHQDWLNGKEYKCKVSNKALPKPIEKTISKAKGQPREPQVYTLPPSREEMTKNQVSLTCLVKGFYPSDIAVEWESNGQPENNYKTTPPVLDSDGSFFLYSKLTVDKSRWQQGNVFSCSVMHEALHNHYTQKSLSLSP light: DIVMTQSPATLSLSPGERATLSCTSSQSVYHANWLSWFQQKPGQPPKLLIYWASTLAYGVPSRFSGSGSGTDFTLTISSLQPEDAATYYCAGGYGGGRYAFGQGTKVEIKRTVAAPSVFIFPPSDEQLKSGTASVVCLLNNFYPREAKVQWKVDNALQSGNSQESVTEQDSKDSTYSLSSTLTLSKADYEKHKVYACEVTHQGLSSPVTKSFNRGEC	5000 nM	4700 nM	7500 nM	1100 nM	3200 nM	390 nM	560 nM	8700 nM	0.1 fold
M103205H795-MY461/M103202L889-SK1 (antibody, human IgG1, kappa, copies: 2 + 2) heavy: QVTLKESGPVLVKPTETLTLTCTVSGIDLSHDDISWVRQAPGKGLEWVGIISYAGSTYYASWAKGRLTISKDTSKNQVVLTMTNMDPVDTATYYCARGVPAYSHGGDLWGQGTLVTVSSASTKGPSVFPLAPSSKSTSGGTAALGCLVKDYFPEPVTVSWNSGALTSGVHTFPAVLQSSGLYSLSSVVTVPSSSLGTQTYICNVNHKPSNTKVDKKVEPKSCDKTHTCPPCPFPELLTGPSVFLFPPKPKDTLMISRTPEVTCVVVDVSDEDPEVKFNWYVDGVEVHNAKTKPREEQYNSTYRVVSVLTVLHQDWLNGKEYKCKVSNKALPKPIEKTISKAKGQPREPQVYTLPPSREEMTKNQVSLTCLVKGFYPSDIAVEWESNGQPENNYKTTPPVLDSDGSFFLYSKLTVDKSRWQQGNVFSCSVMHEALHNHYTQKSLSLSP light: DIVMTQSPATLSLSPGERATLSCTSSQSVYHANWLSWFQQKPGQPPKLLIYWASTLAYGVPSRFSGSGSGTDFTLTISSLQPEDAATYYCAGGYGGGRYAFGQGTKVEIKRTVAAPSVFIFPPSDEQLKSGTASVVCLLNNFYPREAKVQWKVDNALQSGNSQESVTEQDSKDSTYSLSSTLTLSKADYEKHKVYACEVTHQGLSSPVTKSFNRGEC	1300 nM	1800 nM	3300 nM	470 nM	2100 nM	130 nM	340 nM	5400 nM	0.2 fold
M103205H795-MY463/M103202L889-SK1 (antibody, human IgG1, kappa, copies: 2 + 2) heavy: QVTLKESGPVLVKPTETLTLTCTVSGIDLSHDDISWVRQAPGKGLEWVGIISYAGSTYYASWAKGRLTISKDTSKNQVVLTMTNMDPVDTATYYCARGVPAYSHGGDLWGQGTLVTVSSASTKGPSVFPLAPSSKSTSGGTAALGCLVKDYFPEPVTVSWNSGALTSGVHTFPAVLQSSGLYSLSSVVTVPSSSLGTQTYICNVNHKPSNTKVDKKVEPKSCDKTHTCPPCPHPELLTGPSVFLFPPKPKDTLMISRTPEVTCVVVDVSDEDPEVKFNWYVDGVEVHNAKTKPREEQYNSTYRVVSVLTVLHQDWLNGKEYKCKVSNKALPKPIEKTISKAKGQPREPQVYTLPPSREEMTKNQVSLTCLVKGFYPSDIAVEWESNGQPENNYKTTPPVLDSDGSFFLYSKLTVDKSRWQQGNVFSCSVMHEALHNHYTQKSLSLSP light: DIVMTQSPATLSLSPGERATLSCTSSQSVYHANWLSWFQQKPGQPPKLLIYWASTLAYGVPSRFSGSGSGTDFTLTISSLQPEDAATYYCAGGYGGGRYAFGQGTKVEIKRTVAAPSVFIFPPSDEQLKSGTASVVCLLNNFYPREAKVQWKVDNALQSGNSQESVTEQDSKDSTYSLSSTLTLSKADYEKHKVYACEVTHQGLSSPVTKSFNRGEC	2100 nM	1800 nM	4400 nM	580 nM	1600 nM	220 nM	520 nM	4300 nM	0.2 fold
M103205H795-MY462/M103202L889-SK1 (antibody, human IgG1, kappa, copies: 2 + 2) heavy: QVTLKESGPVLVKPTETLTLTCTVSGIDLSHDDISWVRQAPGKGLEWVGIISYAGSTYYASWAKGRLTISKDTSKNQVVLTMTNMDPVDTATYYCARGVPAYSHGGDLWGQGTLVTVSSASTKGPSVFPLAPSSKSTSGGTAALGCLVKDYFPEPVTVSWNSGALTSGVHTFPAVLQSSGLYSLSSVVTVPSSSLGTQTYICNVNHKPSNTKVDKKVEPKSCDKTHTCPPCPGPELLTGPSVFLFPPKPKDTLMISRTPEVTCVVVDVSDEDPEVKFNWYVDGVEVHNAKTKPREEQYNSTYRVVSVLTVLHQDWLNGKEYKCKVSNKALPKPIEKTISKAKGQPREPQVYTLPPSREEMTKNQVSLTCLVKGFYPSDIAVEWESNGQPENNYKTTPPVLDSDGSFFLYSKLTVDKSRWQQGNVFSCSVMHEALHNHYTQKSLSLSP light: DIVMTQSPATLSLSPGERATLSCTSSQSVYHANWLSWFQQKPGQPPKLLIYWASTLAYGVPSRFSGSGSGTDFTLTISSLQPEDAATYYCAGGYGGGRYAFGQGTKVEIKRTVAAPSVFIFPPSDEQLKSGTASVVCLLNNFYPREAKVQWKVDNALQSGNSQESVTEQDSKDSTYSLSSTLTLSKADYEKHKVYACEVTHQGLSSPVTKSFNRGEC	1900 nM	1600 nM	4200 nM	470 nM	1800 nM	240 nM	490 nM	5400 nM	0.2 fold
M103205H795-MY460/M103202L889-SK1 (antibody, human IgG1, kappa, copies: 2 + 2) heavy: QVTLKESGPVLVKPTETLTLTCTVSGIDLSHDDISWVRQAPGKGLEWVGIISYAGSTYYASWAKGRLTISKDTSKNQVVLTMTNMDPVDTATYYCARGVPAYSHGGDLWGQGTLVTVSSASTKGPSVFPLAPSSKSTSGGTAALGCLVKDYFPEPVTVSWNSGALTSGVHTFPAVLQSSGLYSLSSVVTVPSSSLGTQTYICNVNHKPSNTKVDKKVEPKSCDKTHTCPPCPEPELLTGPSVFLFPPKPKDTLMISRTPEVTCVVVDVSDEDPEVKFNWYVDGVEVHNAKTKPREEQYNSTYRVVSVLTVLHQDWLNGKEYKCKVSNKALPKPIEKTISKAKGQPREPQVYTLPPSREEMTKNQVSLTCLVKGFYPSDIAVEWESNGQPENNYKTTPPVLDSDGSFFLYSKLTVDKSRWQQGNVFSCSVMHEALHNHYTQKSLSLSP light: DIVMTQSPATLSLSPGERATLSCTSSQSVYHANWLSWFQQKPGQPPKLLIYWASTLAYGVPSRFSGSGSGTDFTLTISSLQPEDAATYYCAGGYGGGRYAFGQGTKVEIKRTVAAPSVFIFPPSDEQLKSGTASVVCLLNNFYPREAKVQWKVDNALQSGNSQESVTEQDSKDSTYSLSSTLTLSKADYEKHKVYACEVTHQGLSSPVTKSFNRGEC	3100 nM	3100 nM	5500 nM	790 nM	2700 nM	260 nM	550 nM	6700 nM	0.1 fold
